Measured values reported in article PMC2797197.

Target: GST-NSD2-SET (Homo sapiens, UniProt O96028 941-1240)
Assay: EMSA

Sequence of GST-NSD2-SET (O96028 941-1240): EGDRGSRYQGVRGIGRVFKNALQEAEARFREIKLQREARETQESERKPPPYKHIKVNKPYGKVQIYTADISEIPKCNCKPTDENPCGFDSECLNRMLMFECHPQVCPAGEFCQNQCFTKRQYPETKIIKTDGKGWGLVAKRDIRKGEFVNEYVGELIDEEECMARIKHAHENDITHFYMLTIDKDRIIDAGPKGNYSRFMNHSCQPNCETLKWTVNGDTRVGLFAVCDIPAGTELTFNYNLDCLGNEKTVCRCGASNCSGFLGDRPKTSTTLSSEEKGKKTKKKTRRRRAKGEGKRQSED

B1: 41-bp dsDNA (dsDNA)
DNA 1: CTCTCTTTGAGGACACCAACCTGGCGGCCATCCACGCCAAG
DNA 2: CTTGGCGTGGATGGCCGCCAGGTTGGTGTCCTCAAAGAGAG
binding result: binds
